How the values were obtained:
[1] = molecular target: huIL-17RA-FLAG-polyHis (human) (UniProt Q96F46); assay: Luminex binning; huIgG on bead 72 as capture, 2nd mAb R [D00012 FIG. 16B]
[2] = molecular target: huIL-17RA-FLAG-polyHis (human) (UniProt Q96F46); assay: Luminex binning; huIgG on bead 72 as capture, 2nd mAb M [D00012 FIG. 16B]
[3] = molecular target: huIL-17RA-FLAG-polyHis (human) (UniProt Q96F46); assay: Luminex binning; huIgG on bead 72 as capture, 2nd mAb I [D00012 FIG. 16B]
[4] = molecular target: huIL-17RA-FLAG-polyHis (human) (UniProt Q96F46); assay: Luminex binning; huIgG on bead 72 as capture, 2nd mAb N [D00012 FIG. 16B]
[5] = molecular target: huIL-17RA-FLAG-polyHis (human) (UniProt Q96F46); assay: Luminex binning; huIgG on bead 72 as capture, 2nd mAb E [D00012 FIG. 16B]
[6] = molecular target: huIL-17RA-FLAG-polyHis (human) (UniProt Q96F46); assay: Luminex binning; huIgG on bead 72 as capture, 2nd mAb O [D00012 FIG. 16B]
[7] = molecular target: huIL-17RA-FLAG-polyHis (human) (UniProt Q96F46); assay: Luminex binning; huIgG on bead 72 as capture, 2nd mAb C [D00012 FIG. 16B]
[8] = molecular target: huIL-17RA-FLAG-polyHis (human) (UniProt Q96F46); assay: Luminex binning; huIgG on bead 72 as capture, 2nd mAb A [D00012 FIG. 16B]
[9] = molecular target: huIL-17RA-FLAG-polyHis (human) (UniProt Q96F46); assay: Luminex binning; huIgG on bead 72 as capture, 2nd mAb L [D00012 FIG. 16B]
[10] = molecular target: huIL-17RA-FLAG-polyHis (human) (UniProt Q96F46); assay: Luminex binning; huIgG on bead 72 as capture, 2nd mAb J [D00012 FIG. 16B]
[11] = molecular target: huIL-17RA-FLAG-polyHis (human) (UniProt Q96F46); assay: Luminex binning; huIgG on bead 72 as capture, 2nd mAb B [D00012 FIG. 16B]
[12] = molecular target: huIL-17RA-FLAG-polyHis (human) (UniProt Q96F46); assay: Luminex binning; huIgG on bead 72 as capture, 2nd mAb Q [D00012 FIG. 16B]
[13] = molecular target: huIL-17RA-FLAG-polyHis (human) (UniProt Q96F46); assay: Luminex binning; huIgG on bead 72 as capture, 2nd mAb D [D00012 FIG. 16B]
[14] = molecular target: huIL-17RA-FLAG-polyHis (human) (UniProt Q96F46); assay: Luminex binning; huIgG on bead 72 as capture, 2nd mAb F [D00012 FIG. 16B]
[15] = molecular target: huIL-17RA-FLAG-polyHis (human) (UniProt Q96F46); assay: Luminex binning; huIgG on bead 72 as capture, 2nd mAb K [D00012 FIG. 16B]

normalized MFI [1]: 50
normalized MFI [2]: 32
normalized MFI [3]: 22
normalized MFI [4]: 56
normalized MFI [5]: 26
normalized MFI [6]: 95
normalized MFI [7]: 54
normalized MFI [8]: 84
normalized MFI [9]: 34
normalized MFI [10]: 35
normalized MFI [11]: 37
normalized MFI [12]: 28
normalized MFI [13]: 123
normalized MFI [14]: 140
normalized MFI [15]: 100
Substance: huIgG (antibody)

— US20110008841A1
